Drawing on the RNAGym collection of RNA variant scans (doi:10.7554/elife.80360), this text covers self-cleavage for 38 variants.

B1: Hairpin Ribozyme (parent)
chain: GUCCUCUUUCACGUGCGCGUGAAAGAGAGAAGUGAACCAGAGAAACACACGUUGUGGUAUAUUACCUGGUA

Variants of B1 are the subject of this data set. Briefly: self-cleavage, relative activity (ratio to wild type); higher = more cleavage; co-transcriptional.
On to GUCCUCUUUCACGUGCGCGUGAAAGAGAGAACUAAACCAGAGAAACACACGUUGUGGUAUAUUACCUGGUA, for which the self-cleavage was 0.132.

Take GUCCUCUUUCACGUGCGCGUGAAAGAGAGAAAUGAACCAGAGAAACACACGUUGUGGUAUAUUACCUGAUA: the self-cleavage was found to be 0.0516.

As to GUCCUCUUUCACGUGCGCGUGAAAGAGAGAAAUGAACCAGAGAAACACACGUUGUGGUAUAUUACCAGGUA, the self-cleavage was found to be 0.114.

In the case of GUCCUCUUUCACGUGCGCGUGAAAGAGAGAAAUGAACCAGAGAAACACACGUUGUGGUAUAUUACCCGGUA, the self-cleavage amounted to 0.131.

Turning to GUCCUCUUUCACGUGCGCGUGAAAGAGAGAACUGAACCAGAGAAACACGCGUUGUGGUAUAUUACCUGGUA, the self-cleavage came to 0.189.

With GUCCUCUUUCACGUGCGCGUGAAAGAGAGAACUGAACCAGAGAAACACUCGUUGUGGUAUAUUACCUGGUA, the self-cleavage was found to be 0.0382.

Consider GUCCUCUUUCACGUGCGCGUGAAAGAGAGAACUGAACCAGAGAAACACACGUUGUGGUAUAUUACUUGGUA, for which the self-cleavage came out at 0.04.

As to GUCCUCUUUCACGUGCGCGUGAAAGAGAGAAAAGAACCAGAGAAACACACGUUGUGGUAUAUUACCUGGUA, the self-cleavage is 0.139.

As for GUCCUCUUUCACGUGCGCGUGAAAGAGAGAACUGAACCAGAGAAACACACGUUGUUGUAUAUUACCUGGUA, the self-cleavage is 0.156.

As to GUCCUCUUUCACGUGCGCGUGAAAGAGAGAAUUGAACCAGAGAAACACACGUUGUGGUAUCUUACCUGGUA, the self-cleavage came out at 0.157.

As for GUCCUCUUUCACGUGCGCGUGAAAGAGAGAAUUGAACCAGUGAAACACACGUUGUGGUAUAUUACCUGGUA, the self-cleavage is 0.0937.

In the case of GUCCUCUUUCACGUGCGCGUGAAAGAGAGAAUUGAACCAGCGAAACACACGUUGUGGUAUAUUACCUGGUA, the self-cleavage amounted to 0.105.

For GUCCUCUUUCACGUGCGCGUGAAAGAGAGAACUGAACAAGAGAAACACACGUUGUGGUAUAUUACCUGGUA, the self-cleavage was 0.061.

In the case of GUCCUCUUUCACGUGCGCGUGAAAGAGAGAACUGAACCACAGAAACACACGUUGUGGUAUAUUACCUGGUA, the self-cleavage is 0.109.

For GUCCUCUUUCACGUGCGCGUGAAAGAGAGAAUUGAACCAGAGAAACACACGUUGUGGUAUAUUACAUGGUA, the self-cleavage is 0.229.

In the case of GUCCUCUUUCACGUGCGCGUGAAAGAGAGAAUUGAACCAGAGAAACACACCUUGUGGUAUAUUACCUGGUA, the self-cleavage came out at 0.148.

As to GUCCUCUUUCACGUGCGCGUGAAAGAGAGAACUGAACCAGAGAAACACACGAUGUGGUAUAUUACCUGGUA, the self-cleavage turned out to be 0.0962.

Turning to GUCCUCUUUCACGUGCGCGUGAAAGAGAGAACUGAACCAGAGAAACACACGUUGUGGUAUAUUACCUGUUA, the self-cleavage worked out at 0.203.

GUCCUCUUUCACGUGCGCGUGAAAGAGAGAACUGAACCGGAGAAACACACGUUGUGGUAUAUUACCUGGUA: the self-cleavage is 0.111.

With GUCCUCUUUCACGUGCGCGUGAAAGAGAGAACAGAACCAGAGAAACACACGUUGUGGUAUAUUACCUGGUA, the self-cleavage was 0.168.

With GUCCUCUUUCACGUGCGCGUGAAAGAGAGAACUGAACCAGAGAAACACACUUUGUGGUAUAUUACCUGGUA, the self-cleavage amounted to 0.154.

Regarding GUCCUCUUUCACGUGCGCGUGAAAGAGAGAAUUGAACCAGAGAAACACACGUUGUGGUAUAUUACCUGGUA, the self-cleavage turned out to be 0.13.

Take GUCCUCUUUCACGUGCGCGUGAAAGAGAGAACUGAACCAGAGAAACACACGUUGUGGUAUAUUACCUGGUA: the self-cleavage stood at 0.127.

With GUCCUCUUUCACGUGCGCGUGAAAGAGAGAACUGAACCAGAGAAACACACGUUGUGGUGUAUUACCUGGUA, the self-cleavage was found to be 0.15.

Regarding GUCCUCUUUCACGUGCGCGUGAAAGAGAGAACUGAACCAGAGAAACACACGUUGUGGUUUAUUACCUGGUA, the self-cleavage turned out to be 0.103.

As to GUCCUCUUUCACGUGCGCGUGAAAGAGAGAAAUGAACCAGAGAAACACACGUUGUGGUAUAGUACCUGGUA, the self-cleavage came out at 0.0972.

For GUCCUCUUUCACGUGCGCGUGAAAGAGAGAAUUGCACCAGAGAAACACACGUUGUGGUAUAUUACCUGGUA, the self-cleavage is 0.107.

Consider GUCCUCUUUCACGUGCGCGUGAAAGAGAGAACUGAACCAGAGAAACACACGUUGUGGUAUAUUACCUGGGA, for which the self-cleavage worked out at 0.0915.

As for GUCCUCUUUCACGUGCGCGUGAAAGAGAGAACUGAACCAGAUAAACACACGUUGUGGUAUAUUACCUGGUA, the self-cleavage was 0.213.

As to GUCCUCUUUCACGUGCGCGUGAAAGAGAGAACUGAACCAGAAAAACACACGUUGUGGUAUAUUACCUGGUA, the self-cleavage is 0.156.

As for GUCCUCUUUCACGUGCGCGUGAAAGAGAGAACUGAACCAGACAAACACACGUUGUGGUAUAUUACCUGGUA, the self-cleavage came out at 0.137.

Regarding GUCCUCUUUCACGUGCGCGUGAAAGAGAGAACUGACCCAGAGAAACACACGUUGUGGUAUAUUACCUGGUA, the self-cleavage came out at 0.159.

As to GUCCUCUUUCACGUGCGCGUGAAAGAGAGAAUUGAACCAGAGAAAUACACGUUGUGGUAUAUUACCUGGUA, the self-cleavage is 0.276.

As for GUCCUCUUUCACGUGCGCGUGAAAGAGAGAAUUGAACCAGAGAAACACACGUUGUGUUAUAUUACCUGGUA, the self-cleavage was 0.162.

In the case of GUCCUCUUUCACGUGCGCGUGAAAGAGAGAACUGAACCAGAGAAACACACGUUGUGGUAGAUUACCUGGUA, the self-cleavage is 0.112.

For the variant GUCCUCUUUCACGUGCGCGUGAAAGAGAGAACUGAACCAGAGAAACACACGUUGUGGUAAAUUACCUGGUA, the self-cleavage was 0.203.

Take GUCCUCUUUCACGUGCGCGUGAAAGAGAGAACUGAACCAGAGAAAAACACGUUGUGGUAUAUUACCUGGUA: the self-cleavage turned out to be 0.109.

On to GUCCUCUUUCACGUGCGCGUGAAAGAGAGAAUUGAAGCAGAGAAACACACGUUGUGGUAUAUUACCUGGUA, for which the self-cleavage was 0.0126.
